Source: paper PMC8263732, “M1BP cooperates with CP190 to activate transcription at TAD borders and promote chromatin insulator activity” (Nature Communications, 2021)

Tests used:
Assay in all cases: co-IP; 500 ug nuclear extract of 0-24 h Drosophila embryos incubated overnight at 4 C with antiserum (anti-Su(Hw), anti-CP190, anti-Mod(mdg4)67.2 or anti-M1BP; normal serum as control) cross-linked to Protein A or G Sepharose; washed twice with HBSMT and once with HBSM; western blotting; efficiency as percent of total input protein
Conditions in all cases: partners not purified
[1] = target: T1, Motif 1 Binding Protein (M1BP) (Drosophila (endogenous in 0-24 h Oregon …, UniProt Q9VHM3 1-418))
T1 construct: endogenous protein in embryonic nuclear extract; source: endogenous, nuclear extract of 0-24 h Drosophila embryos
T1 sequence (looked up): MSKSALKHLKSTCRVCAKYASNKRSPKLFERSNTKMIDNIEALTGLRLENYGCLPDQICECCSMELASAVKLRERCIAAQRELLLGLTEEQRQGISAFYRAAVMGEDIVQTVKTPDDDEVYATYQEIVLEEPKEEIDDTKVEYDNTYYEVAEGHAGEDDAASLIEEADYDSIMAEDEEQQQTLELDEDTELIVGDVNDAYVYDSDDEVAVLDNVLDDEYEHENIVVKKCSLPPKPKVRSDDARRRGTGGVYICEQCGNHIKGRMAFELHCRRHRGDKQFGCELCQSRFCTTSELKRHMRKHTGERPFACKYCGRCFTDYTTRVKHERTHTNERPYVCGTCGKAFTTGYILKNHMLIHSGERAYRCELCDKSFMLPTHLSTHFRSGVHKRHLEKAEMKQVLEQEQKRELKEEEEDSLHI

[2] = target: T2, Centrosomal protein 190 (CP190) (Drosophila (endogenous in 0-24 h Oregon …, UniProt Q24478 1-1096))
T2 construct: Centrosomal protein 190 (CP190), universal insulator protein of Drosophila; endogenous protein in embryonic nuclear extract; source: endogenous, nuclear extract of 0-24 h Drosophila embryos
T2 sequence (looked up): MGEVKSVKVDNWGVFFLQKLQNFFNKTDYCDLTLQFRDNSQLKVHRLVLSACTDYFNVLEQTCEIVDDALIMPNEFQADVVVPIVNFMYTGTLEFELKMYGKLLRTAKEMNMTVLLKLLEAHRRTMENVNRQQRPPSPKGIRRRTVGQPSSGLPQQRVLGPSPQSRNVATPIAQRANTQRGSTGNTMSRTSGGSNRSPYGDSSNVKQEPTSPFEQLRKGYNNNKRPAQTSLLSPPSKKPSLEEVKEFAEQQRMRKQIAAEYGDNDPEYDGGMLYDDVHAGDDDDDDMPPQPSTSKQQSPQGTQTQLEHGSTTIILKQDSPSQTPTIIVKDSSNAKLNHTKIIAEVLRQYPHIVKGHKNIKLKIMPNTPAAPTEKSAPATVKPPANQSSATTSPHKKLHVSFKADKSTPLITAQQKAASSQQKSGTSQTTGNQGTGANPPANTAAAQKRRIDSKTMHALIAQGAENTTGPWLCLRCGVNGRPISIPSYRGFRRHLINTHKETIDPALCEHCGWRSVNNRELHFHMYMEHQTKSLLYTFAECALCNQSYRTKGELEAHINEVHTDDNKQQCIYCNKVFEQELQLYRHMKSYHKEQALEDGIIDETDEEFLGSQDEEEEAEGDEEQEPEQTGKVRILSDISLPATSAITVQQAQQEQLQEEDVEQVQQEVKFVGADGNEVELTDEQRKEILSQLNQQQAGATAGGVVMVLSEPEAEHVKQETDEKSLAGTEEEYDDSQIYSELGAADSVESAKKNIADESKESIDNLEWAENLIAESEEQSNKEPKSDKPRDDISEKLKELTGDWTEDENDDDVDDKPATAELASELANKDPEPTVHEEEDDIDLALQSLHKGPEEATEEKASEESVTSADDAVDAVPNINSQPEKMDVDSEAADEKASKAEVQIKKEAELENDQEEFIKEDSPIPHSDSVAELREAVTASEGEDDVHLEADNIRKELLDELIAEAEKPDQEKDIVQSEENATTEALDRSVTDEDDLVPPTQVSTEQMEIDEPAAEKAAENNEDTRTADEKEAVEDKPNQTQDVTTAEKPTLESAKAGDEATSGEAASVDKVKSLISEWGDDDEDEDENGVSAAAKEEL

[3] = target: T3, Modifier of mdg4 [Mod(mdg4)] 67.2 kDa isoform [Mod(mdg4)67.2] (Drosophila (endogenous in 0-24 h Oregon …, UniProt Q86B87 1-610))
T3 construct: Modifier of mdg4, the 67.2 kDa isoform, Drosophila; The gene has many isoforms; the 67.2 kDa isoform is meant; to be checked; source: endogenous, nuclear extract of 0-24 h Drosophila embryos
T3 sequence (looked up): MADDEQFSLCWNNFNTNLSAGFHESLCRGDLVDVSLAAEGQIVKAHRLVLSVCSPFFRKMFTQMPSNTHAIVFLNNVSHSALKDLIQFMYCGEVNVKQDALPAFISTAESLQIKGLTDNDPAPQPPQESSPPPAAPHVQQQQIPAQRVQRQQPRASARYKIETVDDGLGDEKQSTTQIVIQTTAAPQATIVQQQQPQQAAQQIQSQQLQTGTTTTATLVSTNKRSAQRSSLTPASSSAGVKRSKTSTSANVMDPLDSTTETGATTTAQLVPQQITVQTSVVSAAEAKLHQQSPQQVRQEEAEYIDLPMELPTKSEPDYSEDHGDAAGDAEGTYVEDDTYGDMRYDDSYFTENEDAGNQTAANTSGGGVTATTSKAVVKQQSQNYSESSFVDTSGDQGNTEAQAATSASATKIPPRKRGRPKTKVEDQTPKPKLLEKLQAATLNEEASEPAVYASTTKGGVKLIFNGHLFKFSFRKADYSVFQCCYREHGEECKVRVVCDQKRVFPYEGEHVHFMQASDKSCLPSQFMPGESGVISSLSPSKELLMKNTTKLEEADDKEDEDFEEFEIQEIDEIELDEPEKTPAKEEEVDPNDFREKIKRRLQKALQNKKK

B1: Suppressor of Hairy wing [Su(Hw)] (natural protein, UniProt P08970 1-941, looked up)
chain: MSASKEGKEKKGKLLGVENISPPKDKRPATRMKLLNDVGAGEDSEASTTTTTSRTPSNKQEKRGSVAGSRIKILNEEILGTPKTEKRGATKSTAPAASTVKILNEKKTPSATVTAVETTKIKTSPSKRKKMEHYVLQAVKSENTKADTTVTVVTEEDDTIDFILADDEEVVPGRIENNNGQEIVVTEDDEDLGEDGDEDGEDSSGKGNSSQTKIKEIVEHVCGKCYKTFRRVQSLKKHLEFCRYDSGYHLRKADMLKNLEKIEKDAVVMEKKDICFCCSESYDTFHLGHINCPDCPKSFKTQTSYERHIFITHSEFSDFPCSICNANLRSEALLALHEEQHKSRGKPYACKICGKDFTRSYHLKRHQKYSSCSSNETDTMSCKVCDRVFYRLDNLRSHLKQHLGTQVVKKPEYMCHTCKNCFYSLSTLNIHIRTHTGEKPFDCDLCDKKFSALVALKKHRRYHTGEKPYSCTVCNQAFAVKEVLNRHMKRHTGERPHKCDECGKSFIQATQLRTHSKTHIRPFPCEQCDEKFKTEKQLERHVKTHSRTKRPVFSCAECKRNFRTPALLKEHMDEGKHSPKQQRSSMRSAVKIMERTDCAICDKNFDSSDTLRRHIRTVHECDPDDIFGVEPHPSKRAKKDIESEEVVPVALNTSAGSLISSQTDGNGVVVREFLVDEGDGAAQTITLENETYTILPLDGAIEGEQLTDEAGVKPEAKKEEAQVSPVVKKEQRKSLAASLAAAIADNLEESCSEDDFSGEILTEEDIKLKENVGKLIDMLVDPPILKKYGWPNAPEETVLCKVIENCGHDLTKGGENYAELDYGSRMREYCKLLFTVVIHNDSIKSLLNNFPIDDVIEYVLGDEDQDEGGLDKDNESHSGDEEAVSVTGETKTNEIREKPEKKEVSAKSEKKEIVGKAVDKDNSEEVVRENKKKPVGEQEKA
notes: endogenous protein in embryonic nuclear extract; source: endogenous, nuclear extract of 0-24 h Drosophila embryos
- percent of total protein immunoprecipitated with anti-M1BP [1]: 2.6%
- percent of total protein immunoprecipitated with anti-CP190 [2]: 7%
- percent of total protein immunoprecipitated with anti-Mod(mdg4)67.2 [3]: 8.5%
